Reference: publication PMC9080080 (Cell Reports, 2022)

target: SARS-CoV-2 RBD protein (Severe acute respiratory syndrome …, UniProt P0DTC2); test: ELISA

Row | Binder | binding result
1 | XMA09 (antibody, V domains shown) VH: QVQLVQSGAEVKKPGSSVKVSCKASGGTFSSFAISWVRQAPGQGLEWMGGIIPIYGTANYAQKFQGRVTITADESTSTAYMDLSSLRSEDTAVYYCARDGSSTYYPHNWFDPWGQGTLVTVSS VL: QSVLTQPPSVSGAPGQRVTISCTGSSSNIGSGYDVHWYQQLPGTAPKLLIYGNSNRPSGVPDRFSGSKSGTSASLAITGLQAEDEADYYCQSYDSSLSGVFGTGTKVTVL | binds
2 | XMA04 (antibody, V domains shown) VH: EVQLVESGGGVVQPGRSLRLSCAASGFTFRTYAMHWVRQAPGKGLEWVAVMWNDGSNKYYADSVKGRFTISRDNSKNTLYLEMNSLRAEDTAVYYCAREGVAAAGSSSDAFDIWGQGTMVTVSS VL: DIQMTQSPSSLSASVGDRVTITCRASQSISNFLNWYQQKPGKAPKLLIYAASSLQSGVPSRFSGSGSGTDFTLTISSLQPEDFATYYCQQSYSTLYSFGQGTKLEIK | binds
3 | XMA01 (antibody, V domains shown) VH: EVQLVESGGGLVQPGGSLRLSCSASGFTFSSYAMHWVRQAPGKGLEYVSSISSNGGSTYYADSVKGRFTISRDNSKNTLYLQMSSLRVEDAAVYYCVKHYQQQLLWGGPDVWGQGTTVTVSS VL: DIQMTQSPVSLSASVGDRVTITCRASQSISTWLAWYQQKPGKAPKLLIYETSSLESGVPSRFSGSGSGTEFTLTISSLQPDDFATYYCQQFNSYPWTFGQGTKVEIK | binds
